Source: paper PMC6748131, “BFL1 modulates apoptosis at the membrane level through a bifunctional and multimodal mechanism showing key differences with BCLXL” (Cell Death and Differentiation, 2018)
Positions count from the first letter of the chain named. In names and notes the source's numbering stands. Each block holds one binder with its values, some of them ahead of it.

Legend:
BFL1ΔC L21A, Q16548 [1] = target: T1, BFL1ΔC L21A, Q16548; assay: TIRF single-molecule brightness analysis; conditions: chain shown with the change, 100% CL SLB, 0.5 nM BFL1∆Cg proteins, 1 h at room temperature, read off a plot
T1 chain: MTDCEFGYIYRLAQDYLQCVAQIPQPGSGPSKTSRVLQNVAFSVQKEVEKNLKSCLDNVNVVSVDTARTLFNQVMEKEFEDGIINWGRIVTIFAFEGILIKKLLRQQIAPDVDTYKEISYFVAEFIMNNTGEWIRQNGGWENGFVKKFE

BFL1ΔC L21A, Q16548 [2] = target: T1, BFL1ΔC L21A, Q16548; assay: FCCS; conditions: chain shown with the change; 100% CL GUV; parent: est. 37; read off a plot
BFL1ΔC R88D, Q16548 [3] = target: T2, BFL1ΔC R88D, Q16548; assay: TIRF single-molecule brightness analysis; conditions: chain shown with the change, 100% CL SLB, 0.5 nM BFL1∆Cg proteins, 1 h at room temperature, read off a plot
T2 chain: T1 chain with A21L, R88D

BFL1ΔC R88D, Q16548 [4] = target: T2, BFL1ΔC R88D, Q16548; assay: FCCS; conditions: chain shown with the change; 100% CL GUV; parent: est. 37; read off a plot
[5] = target: the molecule itself; assay: single-molecule TIRF brightness analysis; BFL1ΔCg 0.5 nM incubated with LUV 1 h at room temperature, supported lipid bilayers; apoptotic-like membranes
[6] = target: the molecule itself; assay: SEC; protein in the presence of 100%CL LUV

other: occurrence of monomers (%) (BFL1ΔC L21A, Q16548 [1]; parent: est. 26): 41% | other: occurrence of dimers (%) (BFL1ΔC L21A, Q16548 [1]; parent: est. 73): 57% | other: %CC (cross-correlation, FCCS) (BFL1ΔC L21A, Q16548 [2]): 22%
B1: BFL1ΔC (BFL1 lacking the C-terminal 24 residues, helix α9), Q16548 L21A (protein)
chain: T1 chain

other: occurrence of monomers (%) (BFL1ΔC R88D, Q16548 [3]; parent: est. 26): 27% | other: occurrence of dimers (%) (BFL1ΔC R88D, Q16548 [3]; parent: est. 73): 71% | other: %CC (cross-correlation, FCCS) (BFL1ΔC R88D, Q16548 [4]): 35%
B2: BFL1ΔC (BFL1 lacking the C-terminal 24 residues, helix α9), Q16548 R88D (protein)
chain: T1 chain with A21L, R88D

B3: BFL1ΔC (BFL1 lacking the C-terminal 24 residues, helix α9) (domain or fragment)
chain: T1 chain with A21L
modifications: Alexa 488 (BFL1ΔCg) or Alexa 647 (BFL1ΔCr) label in FCCS, TIRF and GUV imaging, site not stated; unlabelled in SEC
notes: BFL1 (BCL2A1) lacking the C-terminal 24 residues (helix α9, TA motif); Expressed from the vector pNIC28-Bsa4; Labelled (g, r) and unlabelled forms of the same construct are kept as one molecule; the assay's format tells which was used; also called BFL1ΔCg; BFL1ΔCr
stoichiometry N [5]: 2

B4: BFL1ΔC R88D (domain or fragment)
chain: T1 chain with A21L, R88D
modifications: Alexa 488 (g) or Alexa 647 (r) label in FCCS, site not stated; unlabelled in SEC and in the GUV retrotranslocation assay
notes: Same construct as m1 with one point mutation; also called BFL1ΔCg R88D; BFL1ΔCr R88D
binding result [6]: binds
